Laboratory results as given in patent US7999070B2, “Process for screening of a binding peptide specific for specific RNA and RNA binding peptides therefrom” (priority 2005, dated 2011).
Where no end group is shown, it is not given here.

Tests used:
[1] = Circular dichroism (CD) of the selected peptide, percentage of alpha-helix; type: physicochemical; conditions: for degree of alpha-helices (percentage of alpha-helix, fn): CD at 20° C., 222 nm; for degree of alpha-helices, comparison with Rev peptide (number in parenthesis): relative to Rev peptide (natural RRE RNA binding peptide)
Description: CD was measured at 20° C. by using JASCO model J715 spectropolarimeter. Scanning of 190-260 nm wave length was performed three times with 1 nm of bandwidth, 0.5 nm of datapitch and 100 nm/min speed. The results of the scanning were averaged to obtain CD data. Background spectrum was measured to correct the basic spectrum, and CD signals were converted into mean residue ellipticity [Q]. The percentage of alpha-helix (fn) is calculated by the following formula. [Q]=Qobs[MRW/(101c)]
MRW=mean residue weight (molecular weight is divided by the number of peptide bond), I=length of passway (cm), C=concentration (mg/mL). fn=([Q]222−[Q]coil)/([Q]helix−[Q]coil)
[Q]222=mean residue ellipticity (deg cm2 mol−1) at 222 nm, [Q]helix=ellipticity of authentic helical peptide, [Q]coil=ellipticity of authentic random coil peptide, n=number of amino acid, t=° C.

TAR RNA = assay: Binding capacity to TAR RNA by fluorescence anisotropy
Description: (§1) The detailed investigation on the specificity of peptide 16 (SEQ. ID. No 16) was not performed in the present invention, however the binding capacity to TAR RNA and tRNA, general peptides having stem-loop, was tested by fluorescence anisotropy.

RRE RNA of HIV-1 = assay: Binding capacity of peptide to RRE RNA, fluorescence anisotropy in competition with CRP probe
Description: 100 ml of RRE RNA solution was prepared at the concentration of […], which stood at 65° C. for 10 minutes. Then, the solution was cooled down slowly at room temperature to induce folding. Peptide solution was prepared respectively at the concentration of […] and 1.0 mM, and both of them were maintained at 0° C. […] CRP (5-carboxytetramethylrhodamine labeled paromomycin) was prepared as a probe. Buffer solution was prepared by mixing 140 mM NaCl, 5 mM KCl, 1 mM MgCl2 and 20 mM HEPES (N-2-Hydroxyethylpiperazine-N′-2-Ethanesulfonic Acid, pH 7.4). Fluorescence anisotropy was measured with AMINCO-Bowman Series Luminescence Spectrometer at 20° C. 10 nM CRP was added to […] of buffer solution, to which RRE RNA was added in order to combine CRP with RNA. At that time, anisotropy was increased. Thereafter, peptide competitively binding to CRP was added and the changes of anisotropy were measured. The binding capacity to RRE RNA of the peptide was determined by the KaleidaGraph as follows; [Peptide]=Kd(Amax−A)/[Kd(A−A0)+1]*[RNA]−Kd(A−A0)/(Amax−A)[CRP]0(A−A0)/(Amax−A0)
[Peptide] indicates the concentration of the peptide, [RNA] indicates the concentration of RNA and [CRP] indicates the concentration of CRP. A is the value of fluorescence anisotropy of a sample, Amax is the value of totally bound tracer and A0 is the value of totally free tracer.

tRNA = assay: Binding capacity to tRNA by fluorescence anisotropy
Description: as §1

Row | Substance | degree of alpha-helices (percentage of alpha-helix, fn) [1] | degree of alpha-helices, comparison with Rev peptide (number in parenthesis) [1] | binding capacity to TAR RNA (TAR RNA) | Kd (RRE RNA of HIV-1) | binding capacity to tRNA (tRNA)
1 | LK*KLLKLLK*KLLK*LKG (LK(dimethyl)KLLKLLK(dimethyl)KLLK(dimethyl)LKG-NH2) [peptide 33, K* is dimethylated lysine] | 7.5 | 1.1 | – | – | –
2 | LKK*LLKLLK*KLLKLKG (LKK(dimethyl)LLKLLK(dimethyl)KLLKLKG-NH2) [peptide 16, K* is dimethylated lysine] | 13 | 2.0 | hundreds and tens | < 1 nM | hundreds and tens
3 | LKK*LLKLLKKLLK*LKG (LKK(dimethyl)LLKLLKKLLK(dimethyl)LKG-NH2) [peptide 18, K* is dimethylated lysine] | 4.9 | 0.71 | – | – | –
4 | LKK*LLKLLKKLLKLKG (LKK(dimethyl)LLKLLKKLLKLKG-NH2) [peptide 3, K* is dimethylated lysine] | 4.9 | 0.72 | – | – | –
5 | LKKLLKLLK*KLLK*LKG (LKKLLKLLK(dimethyl)KLLK(dimethyl)LKG-NH2) [peptide 25, K* is dimethylated lysine] | 6.6 | 1.0 | – | – | –
6 | LKKLLKLLKKLLK*LKG (LKKLLKLLKKLLK(dimethyl)LKG-NH2) [peptide 7, K* is dimethylated lysine] | 2.7 | 0.40 | – | – | –
7 | LKKLLKLLKKLLKLKG [peptide 1] | 15 | 2.2 | – | – | –
